The target in the experiment is death receptor 3 (DR3) on human PBMCs / T cells (human) (UniProt Q93038). Briefly: cell-based or functional assay.
Chain of death receptor 3 (DR3) on human PBMCs / T cells (human) (Q93038 25-417 limits assumed): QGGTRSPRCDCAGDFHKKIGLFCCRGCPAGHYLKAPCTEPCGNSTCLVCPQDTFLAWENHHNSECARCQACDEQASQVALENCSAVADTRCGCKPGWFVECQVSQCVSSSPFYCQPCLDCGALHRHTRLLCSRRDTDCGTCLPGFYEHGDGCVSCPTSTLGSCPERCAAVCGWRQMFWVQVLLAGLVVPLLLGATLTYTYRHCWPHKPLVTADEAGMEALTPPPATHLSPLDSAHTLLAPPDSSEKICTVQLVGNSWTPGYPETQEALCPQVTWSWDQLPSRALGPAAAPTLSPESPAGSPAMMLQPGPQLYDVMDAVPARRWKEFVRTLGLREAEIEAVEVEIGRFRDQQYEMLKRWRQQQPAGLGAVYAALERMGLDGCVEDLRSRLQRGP

“recombinant soluble human Flag-TL1A(EC) (ligand)” returned an IL-13 production by T cells with anti-CD3/anti-CD28, 1 ug/mL TL1A-flag (FIG. 4) of 1300 pg/mL; an IL-13 production by T cells with anti-CD3/anti-CD28, 1 ug/mL TL1A-flag (FIG. 8) of 1850 pg/mL; a p65 phosphorylation-positive cells (%) in PBMCs, 40 nM TL1A-flag (FIG. 2B) of 55%; a p65 phosphorylation-positive cells (%) in PBMCs, 40 nM TL1A-flag alone (FIG. 2A) of 45%. For the same substance, the p65 phosphorylation-positive cells (%) in PBMCs, TL1A alone (FIG. 3) is 55%; the p65 phosphorylation-positive cells (%) in PBMCs, TL1A alone (FIG. 5) worked out at 69.5%; the p65 phosphorylation-positive cells (%) in PBMCs, TL1A alone (FIG. 6) turned out to be 45%; the p65 phosphorylation-positive cells (%) in PBMCs, TL1A alone (FIG. 7) came out at 55%.

These data come from patent publication US20170190781A1.
